From the supplement of paper PMC9170038

Test system: K4 kissing-loop RNA reporter
Assay: apparent KD of K4 kissing-loop reporter; higher = weaker reporter binding
Details: Eterna round: R107
Protocol: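 RNA-MaP round R107: designed RNA switches with theophylline, tryptophan, arginine or FMN aptamers are transcribed on-chip within common flanks. They are titrated with a labelled K4 kissing-loop RNA reporter in RNA-MaP buffer (100 mM Tris pH 7.5, 80 mM KCl, 4 mM MgCl2), without ligand or with the indicated ligand. Median apparent KD per design.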

[1] = input ligand: theophylline 20 uM
[2] = input ligand: tryptophan 2.4 mM
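Note: bound reporter read as fluorescence of individual clusters on recovered sequencing chips by microscopy, with normalized cluster intensities fitted with a binding model.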

Sequence	apparent KD of K4 kissing-loop reporter (input ligand: FMN 200 uM)	apparent KD of K4 kissing-loop reporter (input ligand: arginine 13.2 mM)	apparent KD of K4 kissing-loop reporter (input ligand: none)	apparent KD of K4 kissing-loop reporter [1]	apparent KD of K4 kissing-loop reporter [2]
AAAAUAAAUAGCAGUCAUGGAGUGAUGUUCCGAGGACCGGUACGGCCGCCACUCGACCAUCAUAAGAUGGAAUGGCAAGACUGCA [#SwitchBubble 23 #K4Early]	330 nM	265 nM	358 nM	418 nM	208 nM
AAAAUAAAUCAGUGAUGUUGGUAUCUGGAUACCAGCGAUAAUAGUCGCCCUUGGCAGCCAUGGACGUACAAAAUAAGUACGUCCU [MatMod 19 - Jieux - Same State - Theophylline A]	221 nM	117 nM	183 nM	170 nM	160 nM
AAAAUUGCGGUCGAAAGAACUUCUUGCAUACGAGGACCGGUACGGCCGCCACUCGAGUCAAGUGAUGUUUGAUUUUCUAUUAUUA [JR_ExcTryptoA_Sub013]	135 nM	170 nM	160 nM	205 nM	153 nM
AAACCAAUCAGAGGAUAUUCUUUAUUCGACAUAAAUUUCUAUAAAUUGCAGUGAUGUUGCAAUAUAGGAGAAGGCUGAUUGACAA [Exclusion FMN B Gf 12]	239 nM	199 nM	204 nM	229 nM	223 nM
AAACGUUGGUGCGAUACCAGCUGCUCGGAAACGAGCUUGCUGGAGUGAUGUUCCAGGAAAAGCCCUUGGCAGCGCACCGACGAAA [MAT - Same State Theophlline B - Mod of Eli - D27]	856 nM	561 nM	2040 nM	738 nM	715 nM
AAAGAUCUUCUAGAAACUAGAAGAUCAAGAGAGGAUAUCCGAAUUCGGAGAAGGCUCACUAAGUGAUGUUUGGAGGGAAUCCCAA [AK1 SS FMN A]	1250 nM	805 nM	1670 nM	1290 nM	1360 nM
AAAGAUGCGUCGGCCGCCACUGUUGCCAGUGAUGUUGGCAUGUAGAUGCAGUGAUGUUGCGUUUUCAGGACCGGGACGUAAGAUG [5th]	261 nM	253 nM	302 nM	246 nM	134 nM
AAAGUCGGCUGUGAUACCAGUCAUAUAACAACAUAUCGCAGUGAUGUUGCGAGAUAGGAUGACCCUUGGCAGCACUCAGUACGAU [Same State Theophylline B GF 6]	349 nM	360 nM	380 nM	331 nM	338 nM
AAAUAAAUCACGGCCGCCACUGCUAGAGUGAUGUUCUAUUAAUAAUUUCUAAAUUAUAUAAUACUCAGGACCGGGUGAUUUUUAA [JR_SSTryptoB_Sub020]	578 nM	215 nM	355 nM	426 nM	446 nM
AAAUAAAUGGCGGCCGCCACUGAACGCCUCCGCGUGGGUAUAUAGUGAUGUUAUAUGGCCGCCAUCAGGACCGGGCCAAAUAAAA [#08 K4 Tryptophan B Same State]	330 nM	259 nM	502 nM	377 nM	222 nM
AAAUAGCUGACGUUGAGUGGGAGCCAGGCACGAGGACCGGUACGGCCGCCACUCGACUAGGUUUUCAGUGAUGUUGAAAAUUUAA [Exclusion Tryptophan A GF 5]	239 nM	249 nM	206 nM	224 nM	194 nM
AAAUAUUGUUACCUGUUAACAUAGGGCCAACGAGGACCGGUACGGCCGCCACUCGUCUCAUAGCGAGUGAUGUUCGCACCGCCCA	133 nM	58.2 nM	76.6 nM	123 nM	126 nM
AAAUUCUUUUUUUUAUUUAACUUUUCAGAAGGAGCGUGGUAGUACACAGGUAGGUCGCUGAAUUUUAGACUAGUGAUGUUAGUUA [JR_SSArginiA_Sub008]	130 nM	156 nM	190 nM	182 nM	151 nM
AACUCUCAGGCACGCGAGUGAUGUUCGCGGCGAGGACCGGUACGGCCGCCACUCGCGCCUGAGAGAGGUUAUCAAAGAUAGCCAA [whbob_SS_tryp_A]	146 nM	51.3 nM	116 nM	118 nM	223 nM
